Assay results taken from a protein production outcome set (Wang et al. 2014).

Experiment: label from the status in PepcDB records

For “MIKISVIIPIYNAENYIEKAFSSLKNQTLAQNEFEILCIDDKSTDNSLGKLKQLSKIHKNMRIINLHKNSGGPMIPRNKGIKEAKGKYIIFLDNDDYLGEEALERLFIQAEKNQSEVIFGKYVGINGRGVPQSQFKKGNRNEADILADNLVYTLAPHKMFQTAFLKTKKIYFDPNILIGEDQYFVMKAYVNAKVITVLADYDYYYVVSRGDENLSIKESKMDPREICKVVPAVVKEIEASPLHPTYKKTLIRAYIQRYFNDYITGNYNLDYKNMSERQKTFVQVMKDTIVCHLDEKMKNELPTKTRFMIDIIAENNPEKLIDVRMQMENFSKNQVVKVENGYIKGRFRKMRPQLAYDDVYDINHLNSSKVQLHSVTLQNNNYLLDISLEQSLLTRFQTALRLCLKERDGNLEIWISPLKMLSTERGIYAVDSTLFNHTCIWDLFIESEINGFKNRKRVGKDRDFEEIVSSNNTPLLIQNNSYQIKAYFTTPFSNLSFQIISE”, which protein production is on record?
Its protein production is “failed”.

Which protein production does the source give for “MIKKIFALPVIEQISPVLSRRKLDELDLIVVDHPQVKASFALQGAHLLSWKPAGEEEVLWLSNNTPFKNGVAIRGGVPVCWPWFGPAAQQGLPAHGFARNLPWTLKSHHEDADGVALTFELTQSEETKKFWPHDFTLLAHFRVGKTCEIDLESHGEFETTSALHTYFNVGDIAKVSVSGLGDRFIDKVNDAKENVLTDGIQTFPDRTDRVYLNPQDCSVINDEALNRIIAVGHQHHLNVVGWNPGPALSISMGDMPDDGYKTFVCVETAYASETQKVTKEKPAHLAQSIRVAKR” here?
Its protein production is “not failed”.

For “MIKKTIGGIIPIFTAVFIPASAGAADLMLAQEYKGQDIAGWAMSEKLDGVRAYWDGKHLMSRQGYAFAPPKGFTAQFPPYPLDGELYSGRGQFEQISATVRSVSSDWRGIRLHVFDVPKAQGNLYQRLAVATQWLKTHPNAPITIIPQIKVRDRQHAMDFLKQIEAQGGEGVMLRQPESRYSGGRSSQLLKLKSQYDDECTVTRHYEGKGRNAGRLGAVGCKNRHGEFRIGSGFKDKDRDNPPKIGTLITYRYRGFTRKGTPKFATFVRVRTDR”, which protein production is on record?
Its protein production is “failed”.

With “MIKLIKNEIIKMLFKKKVILIMAIILIEACAFAYGQNNKYQRTVRSYVNSNSSSYNWRPLINQQIQDLQSKLKYRTVKKSEEKSINIQMEQYRYYLKNNINPITPTAGNFTSNIMAQSVTLLLPLLVIILASDIVSSEFSSRTIKVLLTRAVPRWKILLSKYIALIIMSAFVVFLTTIIPLIVSLVVFKRTGFGEPVITGYKVIAGKVDASNVVGIYQWYYILIMSALSFFISIVVGSISFMISIFVKSIGASIGIMMSALIGGNILSVFLDDIEAAKYFFVVNLNLPQYLTGKMRIVSGMNFDFSIMVLLIWSMASIVISFYVFNKKDVLV” as the sequence, how does the protein production read?
Its protein production is “failed”.

For “MIKLPVLLADINIQSLPTEPELILNNLAITTLVENLIILLLVATLVALVARWLKIPYVIGLVLAGLAIPRGLSVGLNPELILNFFLPILIFEAAINTDISRLRSTIKPITVLAGPGVVISAAITAVLLKIGLGLAWVTAAGVSVILTITDTVSVIAAFRSVPVPRRLATIVEGESMLNDGVAMVLLSVITTIHIQGGFSAGEGIRQIFVAFVGGGLVGLGLGYLCVGLFRQLNDDLSDILLTVSVSLGTFQIGQMLGVSSAIAVVVAGLVIGNLALKQTSASIKVTLLSFWEYAGFGVNTLIFLLVGIEVYPSILLSTIPAALIAIVAYQIGRVFSIYPLLYLLSFFDRPLPLRWQHVLIAGNVKGSLSMALALALPLTLPGRDQVVTLVFSTVMVSLIGQGLSLPWVVKKLQLSKPSPLAQKIAMLQLNLVTAKAAQGELKYLLEAGSLPKFLYEELFADYQARIANSEQELREFYNQRNLIFSEGEVEKKYIDGLYRRLYIAEKSAINDALAKGILADDISDEYLQVLNEKLLALQDD”, which protein production is on record?
The protein production was “failed”.

Which protein production does the source give for “MIKLYSPYAFLSKYLGAILLSFFCYYAKEIGCNNLTLSVWNDNEGALRFYQRQGMKPQETTMEMIID” here?
Its protein production is “failed”.

With “MIKPELPSNEAERLAALRQYDVLDSPAERAFDDLTMIASTLCETQMAAVVLVDEDRQWFKSAHGAPRSEAPRDISFCAHAILRPDEVLMVDDTLLDPRFHDNPMVVGSGGVRFYAGAPLVTSQGMALGSLCVFDQAPAHLREDQREALQALSRQASQLLELRLAGRQLRQQLHEREWYEQQMAGYYAQMDALHADLVEQTRTDPLTGLPNRRAFAVALAAATEQTRAVGQPLSVALLDVDHFKTVNDVHGHDQGDAVLRELSTLLRAHMAGAGTIARYGGEEFVLLLPNANLLQARVQCEYLRQSVAAMTIALPVTVSIGVATLYPQESVEAVIKRADQALYAAKRGGRDQVVALE” as the sequence, how does the protein production read?
Its protein production is “failed”.

With “MIKSIKKNLKPKILISNLILIIGIVIFVTLYGAVFGSANSLVGVCAITAMLMFVDVHLSLKLNEAIITTVLSFVLMGVSSQIASINPFLGFVVNFISIFVVSYLVTNAMETKAYLPFILCYVFIEGTPITWSELPRRLIALFVGGALIALVYYFSHRKKDDSDHMNISEMIKTMNKNTLQFNFSLRMALAVSIAMLLGSILGFQKSMWISITAMSITQPHFDDTKTRVKERFFGTLIGSAIFVLIFVYIVPQQFSSIVLLILSYIYTFIKEYKIKMIFITMSSLGAAMILFQPGVSVPMRIAFIVMGIGIALVVNKVIYGRLKLEESNEELDETIKDIDKVNDEF” as the sequence, how does the protein production read?
Its protein production is “failed”.

With “MIKTEKNQTSKVTDEVDQLVQRSKKALAILKSYTQAQIDDLCEKVAVAALDNHMKLAKLAVEETGRGVVEDKAIKNIYASEYIWNSMRHDKTVGVIKEDDEEQLMEIAEPVGIVAGVTPVTNPTSTTVFKTLISLKGRNTIVFGFHPQAQKCSSAAADVMREAIKAAGGPADAVLYIEHPSIEATDALMHHTDVATILATGGPSMVTAAYSSGKPALGVGPGNGPTYVEKTADIKQAVNDIVLSKTFDNGMICASE” as the sequence, how does the protein production read?
The protein production was “failed”.

Which protein production does the source give for “MIKVKSPGRVNLIGEHTDYTYGYVMPMAINLYTKIEAEKHGEVILYSEHFGEERKFSLNDLRKENSWIDYVKGIFWVLKESDYEVGGIKGRVSGNLPLGAGLSSSASFEVGILETLDKLYNLKLDSLSKVLLAKKAENEFVGVPCGILDQFAVVFGREGNVIFLDTHTLDYEYIPFPKDVSILVFYTGVRRELASSEYAERKHIAEESLKILGKGSSKEVREGELSKLPPLHRKFFGYIVRENARVLEVRDALKEGNVEEVGKILTTAHWDLAKNYEVSCKELDFFVERALKLGAYGARLTGAGFGGSAIALVDKEDAETIGEEILREYLKRFPWKARHFIVEPSDGVGI” here?
The protein production was “not failed”.

For “MILLSFNILVLYQNVQISLSSGICFRLYSEVLSYILIYVAVWLTLYGIDLLNTVYGASDSRSVSKSAVSKRTLAVLPCSSCRINKRCIENGHLQSATNKTSFVC”, which protein production is on record?
The protein production was “failed”.

For “MILPEYNETDFMQAVINAAPTPIFYKDAQGRYLGCNKAFEEYIGLNREQLIGKSVLELFDDELARTYFEADNALFERKGTQIYEAKVEYADGTTHDVMFHKAYFHAEGIEGIVGSILDITERKKAEKSLEQLALSDSLTGLDNRYSLMKSLKHSLLRQHRENFTLAFLMLDLDGFKQINDNYGHPVGDALLIEVANKLKNHFRESDVIARVGGDEFSVILENIHSTESLIVLANNILAEFLKPFVIDNNKFTIGISIGIATSSFSECSSEDIIKHADAALYQVKNSGKGSYHLTVVN”, which protein production is on record?
Its protein production is “failed”.

Which protein production does the source give for “MILPPIPTPFDREGRLDEEAFRELAQALEPLVDGLLVYGSNGEGVHLTPEERARGLRALRPRKPFLVGLMEETLPQAEGALLEAKAAGAMALLATPPRYYHGSLGAGLLRYYEALAEKMPLFLYHVPQNTKVDLPLEAVEALAPHPNVLGIKDSSGDLSRIAFYQARLQEFRVYTGHAPTFLGALALGAEGGILAAANLAPRAYRALLDHFREGRLAEAQELQKKLFPLGDLLAKGGVPLLKQALRHLGLPAGYPRPPYPAESPLWERFLPVLEGLKEEGWVL” here?
Its protein production is “not failed”.

For “MILPTKAMATQELTVKRKLSGNTLQVQASSPVALGVRIPTVALHMMELFDTTVEQLYSIFTVKELTNKKIIMKWRCGNWPEEHYAMVALNFVPTLGQTELQLKEFLSICKEENMKFCWQKQHFEEIKGSLQLTPLNG”, which protein production is on record?
The protein production was “failed”.

Which protein production does the source give for “MILQSTSLFCKYINNCRYINREIVATLKASPQGLARIKQARSDRGWSVDDFRWLELASEILGVCWQENGVLAAGISEGTWKRFLAGKQAINAEAFKAYCQVLGLNWEEVQEGGRTKERKDTGTSRQEKFLSSSHPHTDWGEAPDVSIFYGRSEELDTVKRWVTQENCRLITLLGMGGIGKTTLSVKLAQEIINSEKIYLSQSPEYIIWRSLRNAPPVEDILAELIQFLSGQQETNLSNHLQGRISLLLKNLRSSRCLIILDNAESILQAGDRNGRYRAGCEGYGQFLQCIAETSHQSCLILTSREKPQGLAKYEGDSLPVRSLPLTGLQEQEGRELFNVKGKFAASCDQWQVLISRYGGNPLALKIVASSIRDFFDGDVSQFLEVSQQGTFIFDDIRDLLDQQFQRLTTLEREIMYWLAINREPVTLAELQADFVANIPPRELLESLSSLQRRSLIEKSAGGFTQQPVVMEYVSNHLIEQVCEEMREWGLVRSRGAEEQRSRGEKIHTQYKLNAALPLTALSTPLFTTHALIKAQAKDYVRESQISLILQPLINQLITEFGSLENISNCLVHILSRLRGKSPQETGYAGGNVLNLLHHAQVDLSGYDFSGLTVWQAYLQGVNLHDVDFANSDLSCCVFTETLGNILSAAFSPEGQLLATCDTDCHVRVWEVKSGKLLLICRGHSNWVRFVVFSPDGEILASCGADENVKLWSVRDGVCIKTLTGHEHEVFSVAFHPDGETLASASGDKTIKLWDIQDGTCLQTLTGHTDWVRCVAFSPDGNTLASSAADHTIKLWDVSQGKCLRTLKSHTGWVRSVAFSADGQTLASGSGDRTIKIWNYHTGECLKTYIGHTNSVYSIAYSPDSKILVSGSGDRTIKLWDCQTHICIKTLHGHTNEVCSVAFSPDGQTLACVSLDQSVRLWNCRTGQCLKAWYGNTDWALPVAFSPDRQILASGSNDKTVKLWDWQTGKYISSLEGHTDFIYGIAFSPDSQTLASASTDSSVRLWNISTGQCFQILLEHTDWVYAVVFHPQGKIIATGSADCTVKLWNISTGQCLKTLSEHSDKILGMAWSPDGQLLASASADQSVRLWDCCTGRCVGILRGHSNRVYSAIFSPNGEIIATCSTDQTVKIWDWQQGKCLKTLTGHTNWVFDIAFSPDGKILASASHDQTVRIWDVNTGKCHHICIGHTHLVSSVAFSPDGEVVASGSQDQTVRIWNVKTGECLQILRAKRLYEGMNITGVTGLTKATIFTLQALGALR” here?
The protein production was “failed”.

With “MILSLCCLGSWPAILTLLERRGRLPQHTFLDFATANLLAAIVIAFSLGEIGKSTFLKPDFTTQLPQDNWPSVLLAVAGGVLLSIGNLATQYAFAFVGLSVTEVITASITVVIGTTLNYFLDNKINKAEILFPGVGCFLIAVFLGAAVHASNAADVKEKLKSLPSEDLYSSIENGEDKPEIEKTDVESQEKLAEKAKAGTAGFYVELENKRAIKVFGKSIMIGLFITLFAGISLSLFSPAFNLATNDQWSTLPKGVPKLVVYTAFFYFSIAGFLISLILNLIFLYRPMVGLARSSLKKYIYDSKGRGWAVFAGFLCGFGNGLQFMGGQAAGYAAADSVQALPLVSTFWGIVLFGEYRKSSKRTYALLVSMLAMFVAAVAILMASSGHRK” as the sequence, how does the protein production read?
The protein production was “failed”.

Which protein production does the source give for “MILTYHNMYYYQNESRDIAAALLIMTLAFFILLNGLGFYGLLSLIYLAIAFLVVVTAFLFHELAHRAVARRLGAVAFFKLWPIGAFLALITSLFHFLFAAPGAVEFAGVYDNESQGKIALAGPATNIIIGIITYILSIFSLGIVHYVLYYVGALNLWFALFNMIPIPPLDGSKVFYWKGSIFAGVFVFTIIMNIVDGFLLHII” here?
The protein production was “failed”.

With “MILVPIDISDKEFTERIISHVESEARIDDAEVHFLTVIPSLPYYASLGMAYTAELPGMDELREGSETQLKEIAKKFSIPEDRMHFHVAEGSPKDKILALAKSLPADLVIIASHRPDITTYLLGSNAAAVVRHAECSVLVVR” as the sequence, how does the protein production read?
The protein production was “not failed”.

With “MIMANWQSIDELQDIASDLPRFTHALDELSRRLGLDITPLTADHISLRCHQNVTAERWRRGFEQCGELLSENMINGRPICLFKLHEPVQVAHWQFSIVELPWPGEKRYPHEGWEHIEIVLPGDPETLNARALALLSDEGLSLPGISVKTSSPKGEHERLPNPTLAVTDGKTTIKFHPWSIEEIVASEQSA” as the sequence, how does the protein production read?
The protein production was “not failed”.
